Molecular target: c-Met (human (endogenous in HCC413)), P08581
Test: flow cytometry on cells; HCC413 cells treated with EGF-FITC or HGF-FITC alone or with unlabeled LZ-8 for 15 min; fixed; relative mean fluorescence intensity
Conditions: remark: other sources report otherwise

Chain of c-Met (human (endogenous in HCC413)), P08581 (P08581 25-1390): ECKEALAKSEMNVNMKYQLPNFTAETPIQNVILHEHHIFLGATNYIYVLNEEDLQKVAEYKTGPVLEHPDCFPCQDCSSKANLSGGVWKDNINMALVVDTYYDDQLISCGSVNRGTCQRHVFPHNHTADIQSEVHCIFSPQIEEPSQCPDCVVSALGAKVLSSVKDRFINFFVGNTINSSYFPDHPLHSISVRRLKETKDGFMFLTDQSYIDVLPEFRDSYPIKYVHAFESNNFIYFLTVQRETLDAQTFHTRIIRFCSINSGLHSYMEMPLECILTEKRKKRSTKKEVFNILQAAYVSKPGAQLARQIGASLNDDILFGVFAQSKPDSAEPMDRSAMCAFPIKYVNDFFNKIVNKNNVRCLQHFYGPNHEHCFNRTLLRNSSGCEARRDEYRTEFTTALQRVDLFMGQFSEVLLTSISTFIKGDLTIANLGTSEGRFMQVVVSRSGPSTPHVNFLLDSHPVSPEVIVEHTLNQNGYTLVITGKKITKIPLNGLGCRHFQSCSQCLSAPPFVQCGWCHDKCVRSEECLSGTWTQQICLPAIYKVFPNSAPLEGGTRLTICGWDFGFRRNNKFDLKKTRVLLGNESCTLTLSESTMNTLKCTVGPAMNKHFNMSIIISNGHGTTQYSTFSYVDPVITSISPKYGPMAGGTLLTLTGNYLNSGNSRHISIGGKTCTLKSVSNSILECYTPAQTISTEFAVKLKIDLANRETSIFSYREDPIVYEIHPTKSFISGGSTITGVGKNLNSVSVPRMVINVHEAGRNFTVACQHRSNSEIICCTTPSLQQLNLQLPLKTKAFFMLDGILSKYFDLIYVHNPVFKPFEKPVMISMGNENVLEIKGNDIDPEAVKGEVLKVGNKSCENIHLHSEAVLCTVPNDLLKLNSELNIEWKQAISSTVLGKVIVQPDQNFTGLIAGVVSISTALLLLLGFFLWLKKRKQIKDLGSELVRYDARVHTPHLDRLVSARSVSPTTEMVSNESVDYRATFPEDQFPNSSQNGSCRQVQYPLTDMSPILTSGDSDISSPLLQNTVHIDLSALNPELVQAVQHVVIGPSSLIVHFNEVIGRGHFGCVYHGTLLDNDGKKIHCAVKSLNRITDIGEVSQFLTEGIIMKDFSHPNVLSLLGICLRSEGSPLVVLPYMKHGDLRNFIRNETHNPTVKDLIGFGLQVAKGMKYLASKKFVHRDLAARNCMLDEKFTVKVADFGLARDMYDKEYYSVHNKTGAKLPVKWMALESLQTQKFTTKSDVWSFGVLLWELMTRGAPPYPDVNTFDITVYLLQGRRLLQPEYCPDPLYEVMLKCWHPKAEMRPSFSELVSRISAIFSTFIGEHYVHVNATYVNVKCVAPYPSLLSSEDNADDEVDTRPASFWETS

B1: Ling-Zhi-8, P14945 1-111 (natural protein)
chain: MSDTALIFRLAWDVKKLSFDYTPNWGRGNPNNFIDTVTFPKVLTDKAYTYRVAVSGRNLGVKPSYAVESDGSQKVNFLEYNSGYGIADTNTIQVFVVDPDTNNDFIIAQWN
modifications: here or on the partner: N-glycans (sites not given)
percent suppression of HGF-FITC binding on the cell surface: 30%
